Here are results for one molecule from patent publication US20230365684A1 (Janssen / Centocor, published 2023).

In assay [1] the target is T1, human CD33 on cells (MOLM-13, Kasumi-1, OCI-AML-3, Kasumi-3) (human, UniProt P20138 18-364).
T1 construct: whole, on cells; also called CD33 expressing cells; CD33+ cell lines
Nature of the assay: FACS binding on OCI-AML-3 cells.

The target of assay [2] is T1, human CD33 on cells (MOLM-13, Kasumi-1, …). The assay can be described thus: FACS binding on Kasumi-1 cells. For orientation: Flow cytometry measures light scatter and fluorescence of single cells or particles in a stream.
For assay [3] the target is unchanged. The assay can be described thus: FACS binding on MOLM-13 cells.

T1 sequence (P20138 18-364): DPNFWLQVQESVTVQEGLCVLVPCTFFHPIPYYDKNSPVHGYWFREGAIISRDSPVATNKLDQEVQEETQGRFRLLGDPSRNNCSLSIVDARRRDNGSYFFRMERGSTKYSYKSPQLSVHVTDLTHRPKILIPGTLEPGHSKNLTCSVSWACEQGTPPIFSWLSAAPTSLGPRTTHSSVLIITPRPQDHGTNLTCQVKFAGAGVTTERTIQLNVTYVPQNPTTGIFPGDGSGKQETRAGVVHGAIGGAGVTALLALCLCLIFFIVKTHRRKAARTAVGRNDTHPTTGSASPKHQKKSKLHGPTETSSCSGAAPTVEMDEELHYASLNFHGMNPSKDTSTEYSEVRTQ

B1: C33B904 (antibody, V domains shown)
VH: EVQLVESGGGLVQPGRSLRLSCAASGFTFDDYAMHWVRQAPGKGLEWVSGIGWSGGSIVYADSVKGRFTISRDNAKNSLYLQMNSLRAEDTALYYCAKDSPYGDFFDYWGQGTLVTVSS
VL: DIVMTQSPDSLAVSLGERATINCKSSQTVFYSSNNKNYLAWYQQKPGQPPKLLISWASTRKSGVPDRFSGSGSGTDFTLTVSSLQAEDVAVYYCQHYYSTPYTFGQGTKLEIK
notes: also called anti-CD33 antibody (clone C33B904); anti-CD33 clone C33B904
In the case of B1, the values for the EC50 in assay [1], in assay [2] and in assay [3] were 16.4 nM, 82.2 nM and 134 nM, respectively.

As usually defined, the EC50 is the midpoint of the concentration-response curve.
